{
  "source": "patent US20180112193A1",
  "about": "“CSF1 THERAPEUTICS” (University Court Of The University Of Edinburgh, priority 2013, published 2018)",
  "molecules": {"B1": {"name": "Fc-CSF-1: active fragment of porcine CSF-1 (SEQ ID NO:1) linked to the hinge-CH3 region of porcine IgG1a (SEQ ID NO:2) (protein, listed as Sus scrofa)", "chain": "SENCSHMIGDGHLKVLQQLIDSQMETSCQIAFEFVDQEQLTDPVCYLKKAFLQVQDILDETMRFRDNTPNANVIVQLQELSLRLNSCFTKDYEEQDKACVRTFYETPLQLLEKIKNVFNETKNLLKKDWNIFSKNCNNSFAKCSSQHERQPEGRGTKTKPPCPICPGCEVAGPSVFIFPPKPKDTLMISQTPEVTCVVVDVSKEHAEVQFSWYVDGVEVHTAETRPKEEQFNSTYRVVSVLPIQHQDWLKGKEFKCKVNNVDLPAPITRTISKAIGQSREPQVYTLPPPAEELSRSKVTVTCLVIGFYPPDIHVEWKSNGQPEPEGNYRTTPPQQDVDGTFFLYSKLAVDKARWDHGETFECAVMHEALHNHYTQKSISKTQGK"}},
  "key": {"male C57BI6 mice [1]": {"tested_on": "male C57BI6 mice", "experiment": "Paracetamol intoxication in mice", "format": "in vivo, mouse", "conditions": "administered 12 hours following paracetamol intoxication; Day 4", "experimental": "(§1) Forty-eight male C57BI6 mice aged 10-12 weeks underwent either 2/3 partial hepatectomy, paracetamol intoxication or chronic liver injury plus 2/3 partial hepatectomy. 2/3 partial hepatectomy was performed by ligating the left lobe and left and right median lobes. Paracetamol intoxication was performed by intraperitoneal administration of 350 mg/kg paracetamol dissolved in phosphate buffered saline (PBS). Chronic liver injury plus 2/3 partial hepatectomy was performed by eight weeks intraperitoneal carbon tetrachloride administration 1 mcl/g twice weekly dissolved in olive oil followed by ⅔ partial hepatectomy as described above. […] Control mice (n=8 per injury model) received subcutaneous PBS of appropriate volume. All mice were culled on day 4 following injury (partial hepatectomy or paracetamol intoxication).\n(§2) Following a midline laparotomy the liver was excised and weighed. Liver weight to body weight ratio was calculated and expressed as a percentage. Livers were fixed in 4% formalin overnight then transferred to 70% ethanol. Livers were then embedded in paraffin blocks and 4 μm sections cut. Immunohistochemistry for Ki67 (a marker of cellular proliferation expressed throughout the cell cycle) was performed following heat mediated antigen retrieval in Tris/EDTA solution at pH9. Hepatocyte proliferation was quantified by counting ki67 positive hepatocytes in 20 high powered fields (400×) per animal and the mean calculated.\nHepatic CSF1 gene expression was assessed in mice following paracetamol intoxication (350 mg/kg paracetamol IP following overnight fast) at time points up to 4 days, showing peak CSF1 gene expression at day 2 (FIG. 14A)."}, "male C57BI6 mice [2]": {"tested_on": "male C57BI6 mice", "experiment": "2/3 partial hepatectomy in mice", "format": "in vivo, mouse", "experimental": "as §1, with “All mice were culled on day 4 following injury (partial hepatectomy or paracetamol intoxication).” left out\nas §2, with “calculated. […]” for “calculated.”"}, "C57BI6 male mice": {"tested_on": "C57BI6 male mice", "experiment": "Hepatic phagocytic ability after paracetamol intoxication (gene analysis, bead clearance assay, ex vivo imaging)", "format": "in vivo, mouse", "experimental": "C57BI6 male mice (8-10 weeks) underwent either partial hepatectomy (⅔ resection) or paracetamol intoxication (350 mg/kg intraperitoneal following overnight fast). CSF1-Fc was administered as previous (0.75 mg/kg). Gene analysis was performed using Qiagen Quantitect Primers (MSR1 and MARCO) and related to GAPDH level for each sample. […] 0.1 mls of 5000 IU/ml heparin solution was infused to prevent blockage of the catheter. 100 μl of red fluorescent bead solution (1:5 Latex beads 1.0 μm, fluorescent red, SIGMA-ALDRICH®) was infused through the cannula (1:2 solution for assay following paracetamol injury). 20 mcl of blood was removed from the cannula every two minutes starting from 1 minute post injection for 15 minutes. Blood was immediately fixed with 300 μl FACS-Lysing solution (BD Biosceinces). After 15 minutes mice were perfused with 15 mls 0.9% saline through the IVC cannula after dividing the portal vein for outflow. Organs were then removed (Liver, spleen, lungs, kidney, brain) and imaged with a Kodak In-Vivo Multispectral FX image station (Excitation: 550 nm; Emission: 600 nm; Exposure 1 sec; f-stop 2.8). Subsequently blood samples were analysed using a LSR-Fortessa™ flow cytometer (BD Biosciences) with fluorescent beads detected on the blue channel (B695/40) by a 1 minute sample collection on low flow rate setting."}, "Pig PK (plasma ELISA)": {"experiment": "Pig PK (plasma ELISA)", "format": "in vivo", "conditions": "weaner pigs; 1.2 mg/kg IV and SC", "experimental": "Porcine CSF-1 Fc-fusion plasma levels were detected using an in-house developed conventional sandwich ELISA utilizing commercially available antibodies. Capture antibody was Abcam ab9693 (0.3 μg/mL) and detection antibody was Rabbit anti-pig IgG (Fc) biotinylated Alpha Diagnostic 90440 (1:5000 dilution). Standard protein was generated and purified in-house (lot 2/24/11 JAS). Standards were added to each plate along with the samples resulting in an 11 point standard range of 2700 ng/mL to […]. This allowed for quantitation of each sample to a standard curve on every assay plate. Assay detection was done using Pierce High Sensitivity Streptavidin-HRP (1:10,000 dilution) and TMB Microwell Peroxidase Substrate System solution (KPL).\nWeaner age barrows (<14 kg) were assigned to three treatment groups receiving a single intravenous (IV) or subcutaneous (SC) dose as follows. Three pigs received 0.5 mg/kg CSF-1 non-fusion dosed SC. Two pigs received 1.2 mg/kg CSF-1:Fc fusion dosed IV. Two pigs received 1.2 mg/kg CSF-1:Fc dosed SC. One ml plasma samples were obtained via the V. jugularis in EDTA anticoagulant tubes and placed on ice until centrifuged. The plasma was transferred to sterile tubes stored at ≤−10° C. until analysis. Serial plasma samples were obtained from each animal at pre-dose and 5 minutes, 30 minutes, 1 hour, 2 hours, 4 hours, 6 hours, 8, hours, 24 hours, 48 hours, and 72 hours post-dose. CSF-1 and CSF-1:Fc fusion protein levels were quantitated in plasma using ELISA assays."}, "[3]": {"conditions": "administered immediately following 2/3 partial hepatectomy, vs control"}, "[4]": {"conditions": "day 2 following partial hepatectomy, vs controls"}, "[5]": {"conditions": "day 2 following paracetamol intoxication"}},
  "data": [
    {"molecule": "B1", "values": [
      {"measurement": "hepatocyte proliferation", "setting": "male C57BI6 mice [1]", "value": "increasing"},
      {"measurement": "liver weight to body weight ratio", "setting": "male C57BI6 mice [1]", "value": "significantly increasing"},
      {"measurement": "hepatocyte proliferation", "setting": "male C57BI6 mice [2]; [3]", "value": "increasing"},
      {"measurement": "liver weight to body weight ratio", "setting": "male C57BI6 mice [2]; [3]", "value": "significantly increasing"},
      {"measurement": "gene expression of oncostatin M (OSM)", "setting": "male C57BI6 mice [2]; [4]", "value": "significantly enhanced"},
      {"measurement": "gene expression of pro-regenerative cytokine 116", "setting": "male C57BI6 mice [2]; [4]", "value": "significantly enhanced"},
      {"measurement": "urokinase receptor (UR) expression", "setting": "male C57BI6 mice [2]; following partial hepatectomy, vs controls", "value": "significantly elevated"},
      {"measurement": "MARCO gene expression, whole liver", "setting": "C57BI6 male mice; [5]", "value": "upregulation"},
      {"measurement": "MSR1 (macrophage scavenger receptor 1) gene expression, whole liver", "setting": "C57BI6 male mice; [5]", "value": "upregulation"},
      {"measurement": "clearance of latex microbeads from the circulation", "setting": "C57BI6 male mice; paracetamol model", "value": "did not notice enhanced clearance"},
      {"measurement": "hepatic fluorescence, ex vivo imaging", "setting": "C57BI6 male mice; paracetamol model", "value": "significant increase"},
      {"measurement": "plasma concentrations relative to unmodified CSF-1", "setting": "Pig PK (plasma ELISA)", "value": 100, "unit": "fold"},
      {"measurement": "time plasma level remains elevated", "setting": "Pig PK (plasma ELISA)", "value": "up to 72 hours"}
    ]}
  ]
}
